In this data set the target is HuR RRM1+2 (RRM1/2) (UniProt Q15717 1-186). In words: fluorescence polarization; 2.4 uM HuR RRM1/2, 45 nM RNA, 15% DMSO; complex 105 mP vs free RNA 35 mP; FP: PBS (20 mM sodium phosphate, 150 mM NaCl, 1 mM DTT, 0.05% Pluronic-127, 15% DMSO), 293 K; pH not stated. As to conditions: protein: recombinant; tags: N-terminal His6-TEV, tag cleaved and removed; label: 5'-FAM; single strand. In general terms: Polarisation of emitted light reports the rotation of a fluorescent probe.
HuR RRM1+2 (RRM1/2), sequence (Q15717 1-186): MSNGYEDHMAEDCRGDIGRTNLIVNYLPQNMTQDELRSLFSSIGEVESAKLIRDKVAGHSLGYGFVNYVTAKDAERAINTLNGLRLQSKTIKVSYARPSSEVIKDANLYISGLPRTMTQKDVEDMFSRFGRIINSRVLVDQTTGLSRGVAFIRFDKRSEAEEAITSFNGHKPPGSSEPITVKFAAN

As for UAUUUAUUUA (ssRNA) [5'-FAM ARE RNA probe], the binding result is given as “binds”.
